Source: patent publication US20130273046A1 (UNIVERSITE DE LAUSANNE, published 2013)

Tests used:
mouse EDAR-Fc = target: T1, mouse EDAR-Fc (mouse); experiment: ELISA on mouse EDAR-Fc (FIG. 6, 9)
T1 construct: also called mouse EDAR (1-183)-Fc; soluble mouse EDAR-Fc fusion protein
Experimental: FIG. 6. Specific binding of the anti-EDAR mAb to both mouse and human EDAR. Graded concentrations of mAbEDAR1-4 or of a control mAb (Aprily 5) were added to wells of a 96-well ELISA plate coated with 100 μl of 1 μg/ml of human EDAR-Fc, mouse EDAR-Fc, human Fas-Fc or Flag-human APRIL. […] The absorbance was measured at 490 nm.
In order to obtain antibodies recognizing both human and mouse EDAR, a feature which would considerably facilitate pre-clinical development of drug candidates, EDAR-deficient mice were immunized with human EDAR. It was then assessed whether monoclonal antibodies generated from these mice indeed recognized EDAR from these two animal species. The wells of microtiter plates were coated with soluble human and mouse EDAR-Fc fusion protein and a negative control protein (human Fas-Fc), blocked and probed with serial dilutions of anti-EDAR monoclonal antibody (mAb) mAbEDAR1, 2, 3 and 4 and a negative control mAb (Aprily 5) (FIG. 6), or with a single dose of mAbEDAR1 to 15 (FIG. 9).

human EDAR-Fc = target: T2, human EDAR-Fc (human); experiment: Western blot, non-reducing SDS-PAGE (FIG. 7A)
T2 construct: also called hEDAR-Fc; human EDAR (1-183)-Fc
Description: (§1) FIG. 7. Use of anti-EDAR mAb in Western blotting.
(§2) The weaker signal obtained with mouse EDAR might be explained by the lower amount of mouse EDAR-Fc loaded on the gel. Binding specificity is established by showing that none of the mAbEDARs does bind to Fas-Fc and Flag-human APRIL (while Flag-human APRIL is recognized by an anti-APRIL mAb). […] The band recognized by mAbEDAR5 in the BSA lane is probably due to a cross-contamination of EDAR-Fc in the neighboring lane.

human Fas-Fc = target: T3, human Fas-Fc (human, UniProt P25445 26-170, limits assumed); experiment: Western blot, 20 ng hFas-Fc (FIG. 7B)
T3 construct: Negative control protein; also called hFas-Fc; not shown: Fc portion
T3 sequence (looked up): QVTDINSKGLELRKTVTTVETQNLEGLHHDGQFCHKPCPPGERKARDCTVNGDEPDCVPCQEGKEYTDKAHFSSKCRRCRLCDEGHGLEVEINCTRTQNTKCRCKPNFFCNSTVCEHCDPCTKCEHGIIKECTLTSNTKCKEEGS
Description: as §2

[1] = target: T4, human EDAR domain II alone fused to Fc of human IgG1 (human, UniProt Q9R187 73-114 (mouse entry), limits assumed); experiment: capture ELISA on EDAR-Fc truncation proteins (FIG. 9)
T4 construct: also called CRD2 EDAR-Fc truncation protein; not shown: Fc region of human IgG1
T4 chain: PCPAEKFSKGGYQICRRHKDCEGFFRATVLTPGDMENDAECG
Description: (§3) Epitope mapping of anti-EDAR monoclonal antibodies on recombinant human EDAR by ELISA. (A) Schematic linear representation of human EDAR showing the position of cystein residues (thin horizontal lines), of the putative N-linked glycosylation site (thick horizontal line, N), of the six structural modules (rectangles with rounded corners) composing the three cystein-rich domains (CRD1, CRD2, CRD3), of the transmembrane domain (rectangle, TMD), of the signal peptide (Leader), of the stalk and of the intracellular domain (ID). Amino acid numbers at the junctions of interest are indicated. The arrow indicates the predicted cleavage site of the signal peptide. The scheme is drawn to scale, except for the intracellular domain. (B) Wells of ELISA plates were coated with goat anti-human IgG antibody, blocked, and further incubated with human EDAR-Fc, mouse EDAR-Fc or the indicated human EDAR-Fc truncation proteins in cell supernatants of transfected cells. One well was also left without cell supernatant (Ctrl). The efficient capture of the various EDAR-Fc proteins was controlled using horseradish peroxydase-coupled donkey anti-human IgG antibody. Binding of mAbEDARs were monitored with horseradish peroxydase-coupled anti-mouse IgG antibody.
(§4) EDAR is a transmembrane protein whose extracellular part is composed of three membrane distal cystein-rich domains (CRDs) and of a proximal membrane stalk domain (FIG. 9A). Constructs coding for the entire EDAR protein, domains I and II, domains II and III, domain III and the stalk domain, domains I, II and III alone and the stalk domain alone were assembled with the Fc region of human IgG1, inserted into a mammalian expression vector and transiently transfected in 293T cells. […] The other fragments were not recognized, in particular the fragments made up of either domain I or II alone. mAbEDAR5, 6, 12 and 13 specifically recognized domain I, alone or together with domain II. mAbEDAR9, 14 and 15 only recognized Fc constructs containing the entire EDAR extracellular domain.

[2] = target: T5, human EDAR stalk domain alone fused to Fc of human IgG1 (human, limits assumed); experiment: as above
T5 construct: also called stalk EDAR-Fc truncation protein; not shown: Fc region of human IgG1
T5 chain: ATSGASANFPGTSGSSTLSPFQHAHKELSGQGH
Description: as §3, §4

[3] = target: T6, human EDAR domain III and the stalk domain fused to Fc of human IgG1 (human, UniProt Q9UNE0 115-183, limits assumed); experiment: as above
T6 construct: also called CRD3 and stalk EDAR-Fc truncation protein; not shown: Fc region of human IgG1
T6 sequence: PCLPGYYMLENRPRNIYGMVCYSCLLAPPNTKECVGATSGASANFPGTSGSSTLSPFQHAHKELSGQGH
Description: as §3, §4

[4] = target: T7, human EDAR domains II and III fused to Fc of human IgG1 (human, UniProt Q9R187 73-150 (mouse entry), limits assumed); experiment: as above
T7 construct: also called CRD2 and CRD3 EDAR-Fc truncation protein; not shown: Fc region of human IgG1
T7 sequence: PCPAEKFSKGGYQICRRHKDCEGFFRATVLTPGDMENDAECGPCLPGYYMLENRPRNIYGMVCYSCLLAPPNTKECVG
Description: as §3, §4

[5] = target: T8, human EDAR domain III alone fused to Fc of human IgG1 (human, limits assumed); experiment: as above
T8 construct: also called CRD3 EDAR-Fc truncation protein; not shown: Fc region of human IgG1
T8 chain: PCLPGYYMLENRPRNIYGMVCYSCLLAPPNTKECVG
Description: as §3, §4

[6] = target: T9, human EDAR domain I alone fused to Fc of human IgG1 (human, UniProt Q9UNE0 27-72); experiment: as above
T9 construct: also called CRD1 EDAR-Fc truncation protein; not shown: Fc region of human IgG1
T9 chain: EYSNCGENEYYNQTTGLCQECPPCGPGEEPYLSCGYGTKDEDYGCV
Description: as §3, §4

Flag-human APRIL = target: T10, Flag-human APRIL (human, UniProt O75888 110-250, limits assumed); experiment: Western blot (FIG. 7A)
T10 construct: Control antigen; not shown: Flag tag
T10 sequence (looked up): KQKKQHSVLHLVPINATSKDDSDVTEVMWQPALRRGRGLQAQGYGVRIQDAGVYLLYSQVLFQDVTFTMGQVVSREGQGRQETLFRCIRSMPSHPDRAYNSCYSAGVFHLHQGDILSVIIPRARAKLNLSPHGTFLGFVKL
Description: as §1, §2

[7] = target: T11, human EDAR domains I and II fused to Fc of human IgG1 (human, UniProt Q9UNE0 27-114); experiment: capture ELISA on EDAR-Fc truncation proteins
T11 construct: Tested as supernatant of transfected 293T cells; also called CRD1 and CRD2 EDAR-Fc truncation protein; fragment made up of domains I and II; not shown: Fc region of human IgG1
T11 sequence: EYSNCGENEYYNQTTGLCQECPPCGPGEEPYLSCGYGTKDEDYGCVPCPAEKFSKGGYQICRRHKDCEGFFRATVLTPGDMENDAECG
Description: as §3, §4

T1 sequence (chain, as listed by the source limits assumed): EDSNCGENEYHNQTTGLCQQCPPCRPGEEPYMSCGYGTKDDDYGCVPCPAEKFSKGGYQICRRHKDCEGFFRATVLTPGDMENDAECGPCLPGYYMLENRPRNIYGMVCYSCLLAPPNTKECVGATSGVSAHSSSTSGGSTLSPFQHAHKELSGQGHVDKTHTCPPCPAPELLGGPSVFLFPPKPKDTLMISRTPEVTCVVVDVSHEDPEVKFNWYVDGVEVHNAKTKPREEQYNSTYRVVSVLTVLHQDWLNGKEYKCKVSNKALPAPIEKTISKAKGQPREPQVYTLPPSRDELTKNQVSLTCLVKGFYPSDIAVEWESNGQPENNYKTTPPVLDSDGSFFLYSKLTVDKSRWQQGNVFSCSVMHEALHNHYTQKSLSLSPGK

binding result (mouse EDAR-Fc): binds | binding result (human EDAR-Fc): binds | binding result (human Fas-Fc): no binding | binding result [1]: no binding | binding result [2]: no binding | binding result [3]: no binding | binding result [4]: no binding | binding result [5]: no binding | binding result [6]: no binding | binding result (Flag-human APRIL): no binding | binding result [7]: binds
B1: mAbEDAR2 (antibody, IgG1, V domains shown)
VH: QVQLQQPGAELVKPGASVKLSCKASGYTFTSYWMQWVKQRPGQGIEWIGEIDPSDSYTYYNQKFKGKATLTIDKSSSTAYMQLSSLTSEDSAVYYCSRKNYYRGMDYWGQGTSVTVSS
VL: DVLMTQTPLSLPVSLGDQASISCRSSQNIVQSNGNTYLEWYLQKPGQSPKLLIYKVSNRFSGVPDRFSGSGSGTDFTLKISRVEADDLGVYYCFQVSHVPYTFGGGTKLEIKR
notes: Light chain identical to that of mAbEDAR4; also called anti-EDAR mAb mAbEDAR2
